For data set [1], the target named is T1, A-type natriuretic peptide (ANP), P01160.
T1 chain: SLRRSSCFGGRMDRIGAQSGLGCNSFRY

The target of data set [2] is T2, C-type natriuretic peptide 22 (CNP 22), P23582.
T2 chain: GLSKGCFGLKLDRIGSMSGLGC

Data set [3] addresses T3, melanin-concentrating hormone (MCH), P20382.
T3 chain: DFDMLRCMLGRVYRPCWQV

Data set [4] addresses neuropeptide Y (NPY), P01303.
In data set [5] the target is T4, vasoactive intestinal peptide (VIP), P01282.
T4 chain: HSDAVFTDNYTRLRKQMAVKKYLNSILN

Data set [6] addresses T5, α-melanocyte stimulating hormone (α-MSH), P01189 (not fully specified).
T5 chain: SYSMEHFRWGKPV

B1: purified signal-FLAG-ARS-extracellular enzyme after the treatment with trypsin beads (protein)
chain: STQGFHVDHTAELRGIRWTSSLRRETSDYHRTLTPTLEALFVSSFQKTELEASCVGCSVLNYRDGNSSVLVHFQLHFLLRPLQTLSLGLEEELLQRGIRARLREHGISLAAYGTIVSAELTGRHKGPLAERDFKSGRCPGNSFSCGNSQCVTKVNPECDDQEDCSDGSDEAHCECGLQPAWRMAGRIVGGMEASPGEFPWQASLRENKEHFCGAAIINARWLVSAAHCFNEFQDPTKWVAYVGATYLSGSEASTVRAQVVQIVKHPLYNADTADFDVAVLELTSPLPFGRHIQPVCLPAATHIFPPSKKCLISGWGYLKEDFLVKPEVLQKATVELLDQALCASLYGHSLTDRMVCAGYLDGKVDSCQGDSGGPLVCEEPSGRFFLAGIVSWGIGCAEARRPGVYARVTRLRDWILEATTKASMPLAPTMAPAPAAPSTAWPTSPESPVVSTPTKSMQALSTVPLDWVTVPKLQGIFGAER
B1: the “cleavage of the substrate peptide, HPLC analysis after reaction at 37° C. for 16 hours” value in data set [1] was “the enzyme sample selectively cleaved VIP, NPY, ANP, CNP, α-MSH, and MCH”; in data set [2], “the enzyme sample selectively cleaved VIP, NPY, ANP, CNP, α-MSH, and MCH”; in data set [3] it was “the enzyme sample selectively cleaved VIP, NPY, ANP, CNP, α-MSH, and MCH”; in data set [4] it was “the enzyme sample selectively cleaved VIP, NPY, ANP, CNP, α-MSH, and MCH”; in data set [5], “the enzyme sample selectively cleaved VIP, NPY, ANP, CNP, α-MSH, and MCH”; in data set [6] it was “the enzyme sample selectively cleaved VIP, NPY, ANP, CNP, α-MSH, and MCH”.

(Values after patent US20060134719.)
